Like-named read-outs stand apart in the source and are kept apart here.
Experiments:
[1] = target: T1, Recombinant soluble E protein (0.8E-His) from DENV-3 (DENV-3, UniProt P27915 281-673)
T1 construct: also called DENV-3 E protein; DV3

[2] = target: T2, Recombinant soluble E protein (0.8E-His) from DENV-1 (DENV-1, UniProt P27909 281-675)
T2 construct: also called DENV-1 E protein; DV1

[3] = target: T3, Recombinant soluble E protein (0.8E-His) from DENV-2 (DENV-2, UniProt P14340 281-675)
T3 construct: also called DENV-2 E protein; DV2

[4] = target: T4, Recombinant soluble E protein (0.8E-His) from DENV-4 (DENV-4, UniProt P09866 280-674)
T4 construct: also called DENV-4 E protein; DV4

[5] = target: T1, Recombinant soluble E protein …; remark: listed apart in the source
[6] = target: T2, Recombinant soluble E protein …; remark: listed apart in the source

B1: DG_3CH1047-SG182/3CL658-SK1 (antibody, human IgG1, kappa, V domains shown)
VH: QVQLVQSGPDVEKPGASVKVSCKASGYTFTSYYMHWVRQAPGQGLEWMGVINPRGGSRRSAQKFQGRITMTRDTSTSTVYMELSSLRSEDTAVYYCARGGEALFYDSYTTPFDGGSWWFDPWGQGSLVTVSS
VL: DIQLTQSPSSLSASVGDRVTFTCQASQEIRKYLNWYQQKPGKAPKLLIYDASELKTGVPSRFSGSGSGTDFTFTISSLQPEDVATYYCQQFEDLPITFGQGTRLQIKR
notes: also called 3Cam
Kd [1]: 0.00501 nM | Kd [2]: 3.51 nM | Kd [3]: 0.765 nM | Kd [4]: 9.11 nM | Kd [5]: 0.00382 nM | Kd [6]: 2.98 nM

Source: patent US20190218277A1 (Chugai, published 2019)
